Data from article PMC8142884.

Biological target: S2H14 (variable region fused with the constant region of IgG1)
Experiment: SPR

Substance: SARS-CoV-2 receptor binding domain (RBD), His-tagged (from UniProt P0DTC2 319-541) (domain or fragment)
- Kd: 4.12 nM
